Source: the nanobody polyreactivity screen of Harvey et al. (2022)

Test: yeast display, Sf9 membrane polyspecificity reagent, FACS + sequencing; frameworks hold sequencing errors
In short: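 Galactose induction of a Saccharomyces cerevisiae BJ5465 synthetic nanobody display library ran 36–48 hours. The cells were then stained for 1 hour at 4 °C with 10% biotinylated, detergent-solubilized Sf9 membrane reagent, pulled down on streptavidin microbeads and FACS-sorted into low and high (top ~1%) gates on expression and reagent-binding fluorescence. Labels for polyreactivity follow the gate of origin.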

| Sequence | polyreactivity (PSR sort gate) |
| --- | --- |
| QVQLVESGGGLVQAGGSLRLSCAASGRIFFRYVMGWYRQAPGKERELVAAIDRGGTTNYADSVKGRFTISRDNAKNTVYLQMNSLKPEDTAVYYCAVRYFPYRDYYWGQGTQVTVSS | high polyreactivity |
| QVQLVESGGGLVQAGGSLRLSCAASGRIFFTNAMGWYRQAPGKERELVAAISKYGARTYYADSVKGRFTISRDKAKNTVYLQMNSLKPEDTAVYYCAADVSVSGYYYWGQGTQVTVSS | high polyreactivity |
| QVQLVESGGGLVQAGGSLRLSCAASGRIFFTNTMGWYRQAPGKERELVAAITRSGTRTYYADSVKGRFTISRDNAKNTVYLQMNSLKPEDTAVYYCNAVVRQLVRYDYWGQGTQVTVSS | high polyreactivity |
| QVQLVESGGGLVQAGGSLRLSCAASGRIFFVYAMGWYRQAPGKERELVASITGGGSTNYADSVKGRFTISRDNAKNTVYLQMNSLKPEDTAVYYCAADIHSTRVFPEYPSGYDYWGQGTQVTVSS | low polyreactivity |
| QVQLVESGGGLVQAGGSLRLSCAASGRIFFVYAMGWYRQSPGKERELVAAISVSDVSTSYADSVKGRFTISRDIAKNTVYLQMNSLKQEDTAVYYCNAGFRFYVYSRIGGEDYWGQGTQVTVSS | low polyreactivity |
| QVQLVESGGGLVQAGGSLRLSCAASGRIFFYNAMGWSRQAPGKERELVAAISARGDRTYYADSVKGRFTISRDNAKNTVYLQMNSLKPEDTAVYYCAADYYNYRYDYWGQGTQVTVSS | high polyreactivity |
| QVQLVESGGGLVQAGGSLRLSCAASGRIFGANAMGWYRQAPGKERELVAAISYSGSRTYYADSVKGRFTISRDNAKNTVYLQMNSLKPEDTAVYYCNTGIAGRRSGYRTDSDYWGQGTQVTVSS | high polyreactivity |
| QVQLVESGGGLVQAGGSLRLSCAASGRIFGAYALGWYRQAPGKERELVAAINSGGSTFYAHSVKGRFTISRDNAKNTVYLQLNSLKPDDTAVYYCAKRSYDYRRYYWGQGTQVTVSS | high polyreactivity |
| QVQLVESGGGLVQAGGSLRLSCAASGRIFGAYAMGWSRQAPGKERELVAAISSSGSRTYYADSVKGRFTISRDNAKNTVYLQMNSLKPEDTAVYYCAATRVSALYDYWGQGTQVTVSS | high polyreactivity |
| QVQLVESGGGLVQAGGSLRLSCAASGRIFGAYAMGWYRQAPGKERELVAAITGGGSTYYADSVKGRFTISRDNAKTTVYLQMKSLKPEDTAVYYCAADYYWTYSYYYERFDYWGQGTQVTVSS | low polyreactivity |
| QVQLVESGGGLVQAGGSLRLSCAASGRIFGAYAMGWYRQAPGKERELVAVITTDGSTTYADSVKGRFTISRDNAKNTVYLQMNSLKPEDTAVYYCAAYGGNGQYYSQYDYWGQGTQVTVSS | low polyreactivity |
| QVQLVESGGGLVQAGGSLRLSCAASGRIFGDNALGWYRQAPGKERELVAAITWSGGSTYYADSVKGRFTISRDNAKNTVYLQMNSLKPEDTAVYYCAADSHRDSSEMDYWGQGTQVTVSS | low polyreactivity |
| QVQLVESGGGLVQAGGSLRLSCAASGRIFGDNDMGWSRQAPGKDRELVAGIRWRADRTYYADSVKGRFTISRDNAKNTVYLQMNSLKPEDTAVYYCNVGSFTGHSYGFGYWGQGTQVTVSS | low polyreactivity |
| QVQLVESGGGLVQAGGSLRLSCAASGRIFGDNGMGWYRQAPGKERELVTYADSVKGRFTISRDNAKNTVYLQMNSLKAEDTAVYESNKDPPGFSGLDEIYWGQGTQVTVSS | low polyreactivity |
| QVQLVESGGGLVQAGGSLRLSCAASGRIFGDNVMGWYRQPPGKERELVAAIRKSGGNTYYADSVKGRFTISRDNAKNTVYLHMNSLKPEDTAVYYCAARYPYLYGFVEYDYWGQGTQVTLSS | low polyreactivity |
| QVQLVESGGGLVQAGGSLRLSCAASGRIFGDYAMGWYRQAPGKERELVAGINFSGGSTYYADSVKGRFTISRDNAKNTVYLQMNSLKPEDTAVYYCNVDSSTIWYLVPGDYWGQGTQVTVSS | low polyreactivity |
| QVQLVESGGGLVQAGGSLRLSCAASGRIFGDYGMGWYRQAPGKERELVAAISSGGSTNYADSVKGRFTISRDNAKNTVYLQMNSLKPEDTAVYYCAKATYPHEYDYWGQGTQVTVSS | low polyreactivity |
